For data set [1], the target named is T1, XPF S767F;ERCC1 wild type (hsERCC1) (Xenopus laevis;Homo sapiens?, UniProt A0A8J0PXV9;P07992 1-897;1-297, S767F|).
T1 sequence 1: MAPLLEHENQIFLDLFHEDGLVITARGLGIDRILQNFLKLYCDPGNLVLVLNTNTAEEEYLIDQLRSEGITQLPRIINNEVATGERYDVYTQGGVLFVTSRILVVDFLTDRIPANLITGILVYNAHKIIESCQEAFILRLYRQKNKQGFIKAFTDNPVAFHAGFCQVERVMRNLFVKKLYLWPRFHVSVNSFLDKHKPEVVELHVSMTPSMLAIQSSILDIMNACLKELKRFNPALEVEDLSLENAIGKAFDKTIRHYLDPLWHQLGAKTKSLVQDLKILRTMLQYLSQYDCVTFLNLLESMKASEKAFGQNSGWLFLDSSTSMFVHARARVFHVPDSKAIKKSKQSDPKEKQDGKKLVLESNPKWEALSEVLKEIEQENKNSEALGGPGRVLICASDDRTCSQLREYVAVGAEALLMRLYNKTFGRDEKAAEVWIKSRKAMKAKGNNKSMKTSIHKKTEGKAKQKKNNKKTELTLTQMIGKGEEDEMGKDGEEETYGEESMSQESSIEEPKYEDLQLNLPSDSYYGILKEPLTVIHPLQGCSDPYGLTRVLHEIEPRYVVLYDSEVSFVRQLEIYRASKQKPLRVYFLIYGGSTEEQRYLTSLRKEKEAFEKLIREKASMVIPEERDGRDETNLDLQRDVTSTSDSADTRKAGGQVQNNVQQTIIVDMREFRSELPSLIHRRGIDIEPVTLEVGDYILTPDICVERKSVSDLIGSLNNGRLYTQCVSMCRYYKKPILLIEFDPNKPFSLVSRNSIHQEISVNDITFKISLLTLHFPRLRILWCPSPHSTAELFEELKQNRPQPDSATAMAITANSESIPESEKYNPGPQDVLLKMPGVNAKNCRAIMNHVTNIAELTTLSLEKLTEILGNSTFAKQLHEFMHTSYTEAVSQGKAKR
T1 sequence 2: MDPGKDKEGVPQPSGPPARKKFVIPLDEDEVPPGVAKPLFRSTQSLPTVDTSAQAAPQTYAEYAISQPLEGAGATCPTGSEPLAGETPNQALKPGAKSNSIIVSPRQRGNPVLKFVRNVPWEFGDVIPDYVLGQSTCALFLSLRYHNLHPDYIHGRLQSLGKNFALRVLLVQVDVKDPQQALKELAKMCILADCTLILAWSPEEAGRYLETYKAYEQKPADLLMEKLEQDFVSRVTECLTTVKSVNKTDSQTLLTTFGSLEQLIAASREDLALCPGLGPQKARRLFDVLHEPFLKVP
As to the kind of experiment: fluorescence anisotropy; 2 mM Ca2+; comparable to wild type; 25 mM Hepes pH 8.0, 15% glycerol, 0.1 mg/ml BSA, 2 mM CaCl2, 10 nM DNA, 1 h at room temperature. To be noted: protein: recombinant;recombinant; tags: FLAG;His; copies: 1;1; label: 5'-FAM on F1; three strands 1:1:1. (In fluorescence polarisation assays a small probe gives low polarisation when free and higher when bound to something large.)

In data set [2] the target is T2, XPF G314E;ERCC1 wild type (hsERCC1) (Xenopus laevis;Homo sapiens?, UniProt A0A8J0PXV9;P07992 1-897;1-297, G314E|).
T2 sequence 1: T1 sequence 1 with G314E, F767S
T2 sequence 2: T1 sequence 2
The description is as above. To be noted: protein: recombinant;recombinant; tags: FLAG;His; copies: 1;1; label: 5'-FAM on F1; three strands 1:1:1.

Where a chain is given by its changes, count along the chain named.

B1: 3' flap DNA substrate (F1+F2+F3) (dsDNA)
DNA 1: CGCGATGCGGATCCAA
DNA 2: CCTAGACTTAAGAGGCCAGACTTGGATCCGCATCGC
DNA 3: GGCCTCTTAAGTCTAGG
Consider B1, for which the binding result in data set [1] and in data set [2] was “binds” in each case.
